Test results taken from paper PMC5805389 (Biochemistry, 2016).

Molecular target: the molecule itself
Assay: crystal structure

B1: human DJ-1, wild type (natural protein)
chain: GSHMASKRALVILAKGAEEMETVIPVDVMRRAGIKVTVAGLAGKDPVQCSRDVVICPDASLEDAKKEGPYDVVVLPGGNLGAQNLSESAAVKEILKEQENRKGLIAAICAGPTALLAHEIGFGSKVTTHPLAKDKMMNGGHYTYSENRVEKDGLILTSRGPGTSFEFALAIVEALNGKEVAAQVKAPLVLKD
For B1, the “stoichiometry N” value was 2.

B2: human DJ-1 D24N (natural protein)
chain: GSHMASKRALVILAKGAEEMETVIPVNVMRRAGIKVTVAGLAGKDPVQCSRDVVICPDASLEDAKKEGPYDVVVLPGGNLGAQNLSESAAVKEILKEQENRKGLIAAICAGPTALLAHEIGFGSKVTTHPLAKDKMMNGGHYTYSENRVEKDGLILTSRGPGTSFEFALAIVEALNGKEVAAQVKAPLVLKD
B2: binds.
